Laboratory results taken from patent US20070003557A1, “Method for treating cancer using premedication” (priority 2005, published 2007).
“Also recorded” adds a separate entry of the source.

How the values were obtained:
Format in all cases: in vivo, human
[1] = Infusion reactions caused by KM-871 in patients, premedication with Benadryl and Zantac (Example 1); conditions: per patient; for Infusion reaction, 1st administration / Infusion reaction, 2nd administration / Infusion reaction, 3rd administration: KM-871 40 mg/m^2 every two weeks, Benadryl 50 mg and Zantac 50 mg parenterally 30 min before, at the administrations named in column Pre-medication; for Infusion reaction, Test: KM-871 test dose 10 mg/m^2 two weeks prior to 1st administration
Method: The following test was performed to suppress the infusion reactions caused by human anti-GD3 chimeric antibody.
A human chimeric antibody which specifically binds to ganglioside GD3, wherein the human chimeric antibody comprises the H chain V region of the antibody comprising the amino acid sequence represented by SEQ ID NO:3 and the L chain V region of the antibody comprising the amino acid sequence represented by SEQ ID NO:4 was produced according to U.S. Pat. No. 6,437,098 (hereinafter referred to as ‘KM-871’).
KM-871 was administered to each patient with a dose of 40 mg/m^2 once every two weeks for four times as a general rule. Benadryl (50 mg) and Zantac (50 mg) were parenterally administered to the patient 30 minutes prior to each administration of KM-871 except for the first administration.
(§1) As a test dose, KM-871 (10 mg/m^2), was administered to the patient two weeks prior to the first administration of KM-871 to confirm its safeness.

[2] = Infusion reactions caused by KM-871 in patients, premedication with Sigulair and Zertec (Example 2); conditions: per patient
Method: (§2) The following test was performed by using various compounds to suppress the infusion reactions caused by KM-871.
KM-871 was administered to each patient with a dose of 40 mg/m^2 once every two weeks for four times as a general rule. Sigulair (10 mg) and Zertec (10 mg) were orally administered to the patient 30 minutes prior to each administration of KM-871 except for the first administration.
as §1

[3] = Infusion reactions caused by KM-871 in patients, premedication with Sigulair, Zertec, Benadryl and Zantac (Example 3); conditions: per patient, KM-871 40 mg/m^2 every two weeks, Sigulair 10 mg, Zertec 10 mg orally and Benadryl 50 mg, Zantac 50 mg parenterally 30 min before, at the administrations named in column Pre-medication
Method: as §2
KM-871 was administered to each patient with a dose of 40 mg/m^2 once every two weeks for four times as a general rule. Sigulair (10 mg) and Zertec (10 mg) were orally administered and Benadryl (50 mg) and Zantac (50 mg) were parenterally administered to the patient 30 minutes prior to each administration of KM-871 except for the first administration.
as §1

[4] = Infusion reactions caused by KM-871 in one patient, premedication before second and third administration (Example 5)
Method: On the day of the second administration of KM-871, Benadryl (100 mg), Zantac (50 mg), Singulair (10 mg), Zyrtec (10 mg) and Dexametazone (10 mg) were administered to the patient followed by the administration of KM-871.
Prior to the third administration of KM-871, Benadryl (100 mg), Zantac (50 mg), Singulair (10 mg), and Zyrtec (10 mg), were administered to the patient.

[5] = Infusion reactions caused by KM-871 in patients, premedication with Sigulair, Zertec, Benadryl, Zantac and Dexametazone (Example 4); conditions: one patient
Method: as §2
KM-871 was administered to each patient with a dose of 40 mg/m^2 or 80 mg/m^2 every two weeks for four times as a general rule. Sigulair (10 mg) and Zertec (10 mg) were orally administered and Benadryl (50 mg), Zantac (50 mg) and Dexametazone (20 mg) were parenterally administered to the patient 30 minutes prior to each administration of KM-871 except for the first administration.
As a test dose, KM-871 (10 mg/m^2), was administered to the patient two weeks prior to the first administration of KM-871 to confirm its safeness. When toxicity or infusion reactions are observed to the patient by the administration, the administration was withdrawn.

[6] = premedication at 1st administration
[7] = premedication at 1st and 2nd administration
[8] = premedication at 2nd administration
[9] = KM-871 40 mg/m^2 every two weeks, Sigulair 10 mg and Zertec 10 mg orally 30 min before, at the administrations named in column Pre-medication
[10] = KM-871 test dose 10 mg/m^2 two weeks prior to 1st administration

B1: KM-871: human chimeric antibody binding ganglioside GD3; H chain V region SEQ ID NO:3, L chain V region SEQ ID NO:4; produced per U.S. Pat. No. 6,437,098 (antibody, V domains shown)
VH: EVQLVESGGDFVQPGGSLRVSCAASGFAFSHYAMSWVRQAPGKGLEWVAYISSGGSGTYYSDSVKGRFTISRDNSKNTLYLQMRSLRAEDSAVYFCTRVKLGTYYFDSWGQGTLLTVSS
VL: DIQMTQSPSSLSASVGDRVTITCSASQDISNYLNWYQQKPDKAPKLLIFYSSNLHSGVPSRFSGGGSGTDYTLTISSLQPEDIATYFCHQYSKLPWTFGQGTKVEIKR
modifications: Artificial Sequence H chain V region of the antibody; Artificial Sequence L chain V region of the antibody
Infusion reaction, 1st administration [1, 6]: ARMS, LEGS, ERYTHEMA; also recorded: FEVER; also recorded: RIGORS
Infusion reaction, 2nd administration [1, 6]: CHILLS; also recorded: FEVER
Infusion reaction, 3rd administration [1, 6]: HIVES
Infusion reaction, 1st administration [1, 7]: FULLNESS IN THROAT
Infusion reaction, 2nd administration [1, 7]: HIVES
Infusion reaction, 1st administration [1, 8]: ITCHING; also recorded: RIGORS
Infusion reaction, 3rd administration [1, 8]: CHILLS
Infusion reaction, Test [1, 6]: FEVER; also recorded: HIVES
Infusion reaction, Test [1, 7]: ITCHING
Infusion reaction, 1st administration [2, 9]: CHILLS; also recorded: THROAT SWELLING; also recorded: ITCHING/HIVES
Infusion reaction, 2nd administration [2, 9]: HIVES
Infusion reaction, 3rd administration [2, 9]: HIVES ON HANDS
Infusion reaction, Test [2, 10]: FACIAL FLUSHING; also recorded: HIVES/ITCHING
Infusion reaction, 2nd administration [3]: ITCHING
Infusion reaction, 1st administration ([3]; premedication at 1st, 2nd and 3rd administrations): HIVES; also recorded: ITCHING
Infusion reaction, 1st administration ([3]; premedication at 2nd and 4th administrations): FEVER; also recorded: HIVES/ITCHING
Infusion reaction, 1st administration ([3]; premedication at 2nd, 3rd and 4th administrations): FEVER
Infusion reactions at the first administration ([4]; 4 mg/m^2 of KM-871, no premedication stated): Rash, Urticaria, Itching
Infusion reactions after the third administration ([4]; premedication Benadryl 100 mg, Zantac 50 mg, Singulair 10 mg and Zyrtec 10 mg before KM-871): infusion reactions did not appear
Infusion reactions after the second administration ([4]; premedication Benadryl 100 mg, Zantac 50 mg, Singulair 10 mg, Zyrtec 10 mg and Dexametazone 10 mg the same day before KM-871): infusion reactions did not appear
Infusion reaction, 1st administration ([5]; KM-871 40 mg/m^2 or 80 mg/m^2 every two weeks, premedication (Sigulair, Zertec, Benadryl, Zantac, Dexametazone) at 2nd administration): HIVES
Infusion reaction, Test [5, 10]: RASH
